The labels stand for the following.
B1: EIF5 (parent)
chain: KQTIGNSCKACGYRGMLDTHHKLC
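Further: lentivirally expressed fusions sorted by FACS into six bins by GFP to DsRed ratio, PSI derived from sequencing read proportions per bin multiplied by bin number.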

The variants in the data set derive from B1. Kind of data set: protein stability index of a GFP-peptide fusion (GPS, HEK-293T) (PSI 1-6); higher = more stable. Conditions: c terminus: a fixed tail appended.
For the variant KQTIFNSCKACGYRGMLDTHHKLC, the protein stability index worked out at 2.64.

On to KQTIINSCKACGYRGMLDTHHKLC, for which the protein stability index was found to be 3.12. The figure for KQTIWNSCKACGYRGMLDTHHKLC is 2.34; for KQTINNSCKACGYRGMLDTHHKLC it is 3.44; for KQTIMNSCKACGYRGMLDTHHKLC it is 4.13. In the case of KQTIVNSCKACGYRGMLDTHHKLC, the protein stability index worked out at 3.46. To KQTIENSCKACGYRGMLDTHHKLC belongs 4.09; to KQTITNSCKACGYRGMLDTHHKLC, 2.99. On to KQTICNSCKACGYRGMLDTHHKLC, for which the protein stability index came to 3. Regarding KQTIYNSCKACGYRGMLDTHHKLC, the protein stability index was determined as 2.81. The figure for KQTILNSCKACGYRGMLDTHHKLC is 2.37.

On to KQTIKNSCKACGYRGMLDTHHKLC, for which the protein stability index came to 3.26.

In the case of KQTISNSCKACGYRGMLDTHHKLC, the protein stability index stood at 2.95. In the case of KQTIANSCKACGYRGMLDTHHKLC, the protein stability index was determined as 3.23. To KQTIHNSCKACGYRGMLDTHHKLC belongs 2.96; to KQTIDNSCKACGYRGMLDTHHKLC, 3.53.

In the case of KQTIRNSCKACGYRGMLDTHHKLC, the protein stability index turned out to be 2.53. The figure for KQTIQNSCKACGYRGMLDTHHKLC is 3.3; for KQTIPNSCKACGYRGMLDTHHKLC it is 3.41; for KQRIGNSCKACGYRGMLDTHHKLC it is 3.18.

With KQYIGNSCKACGYRGMLDTHHKLC, the protein stability index worked out at 3.35. To KQCIGNSCKACGYRGMLDTHHKLC belongs 2.92; to KQQIGNSCKACGYRGMLDTHHKLC, 3.06. Turning to KQFIGNSCKACGYRGMLDTHHKLC, the protein stability index turned out to be 2.86. Turning to KQNIGNSCKACGYRGMLDTHHKLC, the protein stability index came out at 3.31. To KQVIGNSCKACGYRGMLDTHHKLC belongs 2.38; to KQKIGNSCKACGYRGMLDTHHKLC, 3.4; to KQSIGNSCKACGYRGMLDTHHKLC, 3.19. As for KQIIGNSCKACGYRGMLDTHHKLC, the protein stability index is 2.71. To KQEIGNSCKACGYRGMLDTHHKLC belongs 2.99; to KQDIGNSCKACGYRGMLDTHHKLC, 4.01.

With KQGIGNSCKACGYRGMLDTHHKLC, the protein stability index was 3.15. In the case of KQPIGNSCKACGYRGMLDTHHKLC, the protein stability index was 3.66. The figure for KQMIGNSCKACGYRGMLDTHHKLC is 3.5; for KQAIGNSCKACGYRGMLDTHHKLC it is 3.04; for KQWIGNSCKACGYRGMLDTHHKLC it is 2.46. To KQLIGNSCKACGYRGMLDTHHKLC belongs 3.23. Take KQHIGNSCKACGYRGMLDTHHKLC: the protein stability index was determined as 3.67. The figure for KQTIGMSCKACGYRGMLDTHHKLC is 2.83. To KQTIGVSCKACGYRGMLDTHHKLC belongs 3.52; to KQTIGRSCKACGYRGMLDTHHKLC, 2.84. Turning to KQTIGGSCKACGYRGMLDTHHKLC, the protein stability index worked out at 3.33. The figure for KQTIGESCKACGYRGMLDTHHKLC is 3.62; for KQTIGHSCKACGYRGMLDTHHKLC it is 3.03. In the case of KQTIGWSCKACGYRGMLDTHHKLC, the protein stability index was 2.62. On to KQTIGASCKACGYRGMLDTHHKLC, for which the protein stability index turned out to be 3.1. With KQTIGTSCKACGYRGMLDTHHKLC, the protein stability index was found to be 3.66. The figure for KQTIGLSCKACGYRGMLDTHHKLC is 2.96; for KQTIGQSCKACGYRGMLDTHHKLC it is 3.95; for KQTIGDSCKACGYRGMLDTHHKLC it is 3.63. As to KQTIGKSCKACGYRGMLDTHHKLC, the protein stability index turned out to be 3.11. The figure for KQTIGCSCKACGYRGMLDTHHKLC is 3.71; for KQTIGPSCKACGYRGMLDTHHKLC it is 3.12; for KQTIGFSCKACGYRGMLDTHHKLC it is 3.34. Regarding KQTIGSSCKACGYRGMLDTHHKLC, the protein stability index stood at 3.24.

For the variant KQTIGYSCKACGYRGMLDTHHKLC, the protein stability index was 3.92. To KQTIGISCKACGYRGMLDTHHKLC belongs 3.84; to KQTLGNSCKACGYRGMLDTHHKLC, 3.73; to KQTPGNSCKACGYRGMLDTHHKLC, 3.44. KQTDGNSCKACGYRGMLDTHHKLC: the protein stability index came out at 3.95. Regarding KQTWGNSCKACGYRGMLDTHHKLC, the protein stability index was 2.82.

For KQTMGNSCKACGYRGMLDTHHKLC, the protein stability index was 3.63. The figure for KQTQGNSCKACGYRGMLDTHHKLC is 4.17; for KQTRGNSCKACGYRGMLDTHHKLC it is 3.31.

Consider KQTGGNSCKACGYRGMLDTHHKLC, for which the protein stability index came out at 3.56. Take KQTEGNSCKACGYRGMLDTHHKLC: the protein stability index was found to be 3.92. The figure for KQTHGNSCKACGYRGMLDTHHKLC is 3.39; for KQTYGNSCKACGYRGMLDTHHKLC it is 3.08; for KQTAGNSCKACGYRGMLDTHHKLC it is 3.68. To KQTNGNSCKACGYRGMLDTHHKLC belongs 3.63. To KQTCGNSCKACGYRGMLDTHHKLC belongs 3.24; to KQTTGNSCKACGYRGMLDTHHKLC, 3.29; to KQTFGNSCKACGYRGMLDTHHKLC, 3.02. As for KQTVGNSCKACGYRGMLDTHHKLC, the protein stability index stood at 3.57. To KQTKGNSCKACGYRGMLDTHHKLC belongs 3.41.

On to KQTSGNSCKACGYRGMLDTHHKLC, for which the protein stability index came out at 3.75. The figure for KPTIGNSCKACGYRGMLDTHHKLC is 3.5. As to KSTIGNSCKACGYRGMLDTHHKLC, the protein stability index came out at 3.05. On to KETIGNSCKACGYRGMLDTHHKLC, for which the protein stability index came out at 3.74. KHTIGNSCKACGYRGMLDTHHKLC: the protein stability index was determined as 3.6. For the variant KYTIGNSCKACGYRGMLDTHHKLC, the protein stability index came to 2.19. Turning to KCTIGNSCKACGYRGMLDTHHKLC, the protein stability index stood at 3.09.

With KNTIGNSCKACGYRGMLDTHHKLC, the protein stability index worked out at 3.02.

With KRTIGNSCKACGYRGMLDTHHKLC, the protein stability index amounted to 2.56. As to KKTIGNSCKACGYRGMLDTHHKLC, the protein stability index was 3.18. To KGTIGNSCKACGYRGMLDTHHKLC belongs 3.22. To KITIGNSCKACGYRGMLDTHHKLC belongs 2.51. To KVTIGNSCKACGYRGMLDTHHKLC belongs 3; to KMTIGNSCKACGYRGMLDTHHKLC, 2.85. On to KTTIGNSCKACGYRGMLDTHHKLC, for which the protein stability index is 3.05.

As for KLTIGNSCKACGYRGMLDTHHKLC, the protein stability index was determined as 2.61. The figure for KWTIGNSCKACGYRGMLDTHHKLC is 1.93; for KFTIGNSCKACGYRGMLDTHHKLC it is 2.54; for KDTIGNSCKACGYRGMLDTHHKLC it is 2.84.
